Residue numbers refer to the chain shown, from its start. Names and notes keep the numbering of the source.
B1: mAb2 (felinized anti-NGF antibody) wild-type, feline IgG1a (antibody, part only; not given: Anti-NGF heavy and light variable domains, part only)
heavy, part: ASTTAPSVFPLAPSCGTTSGATVALACLVLGYFPEPVTVSWNSGALTSGVHTFPAVLQASGLYSLSSMVTVPSSRWLSDTFTCNVAHPPSNTKVDKTVRKTDHPPGPKPCDCPKCPPPEMLGGPSIFIFPPKPKDTLSISRTPEVTCLVVDLGPDDSDVQITWFVDNTQVYTAKTSPREEQFNSTYRVVSVLPILHQDWLKGKEFKCKVNSKSLPSPIERTISKAKGQPHEPQVYVLPPAQEELSRNKVSVTCLIKSFHPPDIAVEWEITGQPEPENNYRTTPPQLDSDGTYFVYSKLSVDRSHWQRGNTYTCSVSHEALHSHHTQKSLTQSPGK
B2: mAb1 (felinized anti-IL31 antibody) S428L, feline IgG1a (antibody, part only; not given: Anti-IL31 heavy and light variable domains, part only)
heavy, part: B1 heavy, part with S316L
B3: mAb1 (felinized anti-IL31 antibody) wild-type, feline IgG1a (antibody, part only; not given: Anti-IL31 heavy and light variable domains, part only)
heavy, part: B1 heavy, part
B4: mAb2 (felinized anti-NGF antibody) S428L, feline IgG1a (antibody, part only; not given: Anti-NGF heavy and light variable domains, part only)
heavy, part: B1 heavy, part with S316L
B5: mAb4 (felinized anti-IL31 antibody ZTS-5864) WT, feline IgG1a (antibody)
heavy: DVQLVESGGDLVKPGGSLRLTCVASGFTFSDYAMSWVRQAPGKGLQWVAGIDSVGSGTSYADSVKGRFTISRDNAKNTLYLQMNSLKTEDTATYYCASGFPGSFEHWGQGTLVTVSSASTTAPSVFPLAPSCGTTSGATVALACLVLGYFPEPVTVSWNSGALTSGVHTFPAVLQASGLYSLSSMVTVPSSRWLSDTFTCNVAHPPSNTKVDKTVRKTDHPPGPKPCDCPKCPPPEMLGGPSIFIFPPKPKDTLSISRTPEVTCLVVDLGPDDSDVQITWFVDNTQVYTAKTSPREEQFNSTYRVVSVLPILHQDWLKGKEFKCKVNSKSLPSPIERTISKAKGQPHEPQVYVLPPAQEELSRNKVSVTCLIKSFHPPDIAVEWEITGQPEPENNYRTTPPQLDSDGTYFVYSKLSVDRSHWQRGNTYTCSVSHEALHSHHTQKSLTQSPGK
VL: QSVLTQPSSVSGTLGQRITISCTGSSSNIGSGYVGWYQQVPGMGPKTVIYYNSDRPSGVPDRFSGSKSGSSGTLTITGLQAEDEADYYCSVYDRTFNAVFGGGT
notes: The same holds for all mAb4 variants; also called mAb4 ID No. 1
B6: mAb4 (felinized anti-IL31 antibody ZTS-5864) S428L, feline IgG1a (antibody)
heavy: B5 heavy with S433L
VL: B5 VL
notes: also called mAb4 ID No. 11
B7: mAb4 (felinized anti-IL31 antibody ZTS-5864) S434H, feline IgG1a (antibody)
heavy: B5 heavy with S439H
VL: B5 VL
notes: also called mAb4 ID No. 00
B8: Anti-NGF antibody of Table 3, S434I (antibody)
heavy: DVQLVESGGDLVKPGGSLRLTCVASGFTYSNYWMHWVRQAPGKGLQWVARIDPYGGGTKHNEKFKRRFTISRDNAKNTLYLQMNSLKTEDTATYYCVRSGYDYYFDVWGQGTLVTVSSASTTAPSVFPLAPSCGTTSGATVALACLVLGYFPEPVTVSWNSGALTSGVHTFPAVLQASGLYSLSSMVTVPSSRWLSDTFTCNVAHPPSNTKVDKTVRKTDHPPGPKPCDCPKCPPPEMLGGPSIFIFPPKPKDTLSISRTPEVTCLVVDLGPDDSDVQITWFVDNTQVYTAKTSPREEQFNSTYRVVSVLPILHQDWLKGKEFKCKVNSKSLPSPIERTISKAKGQPHEPQVYVLPPAQEELSRNKVSVTCLIKSFHPPDIAVEWEITGQPEPENNYRTTPPQLDSDGTYFVYSKLSVDRSHWQRGNTYTCSVSHEALHIHHTQKSLTQSPGK
light: EIQMTQSPSSLSASPGDRVTITCRASENIYSFLAWYQQKPGKVPKLLIYNANTLAEGVPSRFSGSGSGTDFTLTISSLEPEDAATYYCQHHFGTPFTFGSGTKLEIKRSDAQPSVFLFQPSLDELHTGSASIVCILNDFYPKEVNVKWKVDGVVQNKGIQESTTEQNSKDSTYSLSSTLTMSSTEYQSHEKFSCEVTHKSLASTLVKSFQRSECQRE
B9: Anti-NGF antibody of Table 3, S434M (antibody)
heavy: B8 heavy with I440M
light: B8 light
B10: Anti-NGF antibody of Table 3, S434N (antibody)
heavy: B8 heavy with I440N
light: B8 light
B11: Anti-NGF antibody of Table 3, S434K (antibody)
heavy: B8 heavy with I440K
light: B8 light
B12: Anti-NGF antibody of Table 3, S434Q (antibody)
heavy: B8 heavy with I440Q
light: B8 light
B13: Anti-NGF antibody of Table 3, S434P (antibody)
heavy: B8 heavy with I440P
light: B8 light
B14: Anti-NGF antibody of Table 3, S434L (antibody)
heavy: B8 heavy with I440L
light: B8 light
B15: mAb4 (felinized anti-IL31 antibody ZTS-5864) S428M and S434W, feline IgG1a (antibody)
heavy: B5 heavy with S433M, S439W
VL: B5 VL
notes: also called mAb4 ID No. 36
B16: mAb4 (felinized anti-IL31 antibody ZTS-5864) S428M and S434F, feline IgG1a (antibody)
heavy: B5 heavy with S433M, S439F
VL: B5 VL
notes: also called mAb4 ID No. 33
B17: mAb4 (felinized anti-IL31 antibody ZTS-5864) S428Y and S434W, feline IgG1a (antibody)
heavy: B5 heavy with S433Y, S439W
VL: B5 VL
notes: also called mAb4 ID No. 31
B18: mAb4 (felinized anti-IL31 antibody ZTS-5864) S428P, feline IgG1a (antibody)
heavy: B5 heavy with S433P
VL: B5 VL
notes: also called mAb4 ID No. 14
B19: mAb4 (felinized anti-IL31 antibody ZTS-5864) S428T, feline IgG1a (antibody)
heavy: B5 heavy with S433T
VL: B5 VL
notes: also called mAb4 ID No. 17
B20: mAb4 (felinized anti-IL31 antibody ZTS-5864) S428R, feline IgG1a (antibody)
heavy: B5 heavy with S433R
VL: B5 VL
notes: also called mAb4 ID No. 16
B21: mAb4 (felinized anti-IL31 antibody ZTS-5864) S428Q, feline IgG1a (antibody)
heavy: B5 heavy with S433Q
VL: B5 VL
notes: also called mAb4 ID No. 15
B22: mAb4 (felinized anti-IL31 antibody ZTS-5864) S428W, feline IgG1a (antibody)
heavy: B5 heavy with S433W
VL: B5 VL
notes: also called mAb4 ID No. 19

These binders were tested against Feline FcRn (complex of FcRn-α subunit and β-microglobulin, C-terminal His tag) (feline) (assay: SPR Biacore, FcRn amine-coupled on CM5, pH 6).
Chain of Feline FcRn (complex of FcRn-α subunit and β-microglobulin, C-terminal His tag) (feline) (chain, as listed by the source, chain 1 of 2): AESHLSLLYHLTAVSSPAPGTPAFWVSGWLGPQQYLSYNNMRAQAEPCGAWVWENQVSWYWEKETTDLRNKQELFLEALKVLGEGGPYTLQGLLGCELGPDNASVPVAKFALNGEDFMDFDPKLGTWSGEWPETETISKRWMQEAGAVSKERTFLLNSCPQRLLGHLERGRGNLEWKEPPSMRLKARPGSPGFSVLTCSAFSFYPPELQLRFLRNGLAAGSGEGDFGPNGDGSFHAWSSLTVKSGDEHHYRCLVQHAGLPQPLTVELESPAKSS
Chain of Feline FcRn (complex of FcRn-α subunit and β-microglobulin, C-terminal His tag) (feline) (Q5MGS7 21-118, chain 2 of 2): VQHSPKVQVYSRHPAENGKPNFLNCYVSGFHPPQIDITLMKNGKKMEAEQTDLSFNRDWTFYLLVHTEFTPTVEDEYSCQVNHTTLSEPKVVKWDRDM

Kd	Binder
25 nM	B1
3.77 nM	B2
12.1 nM	B3
1.51 nM	B4

What follows are binders tested against T1, Feline FcRn (complex of FcRn-α subunit and β-microglobulin, C-terminal His tag) (feline, UniProt A0ABI7ZNY9 23-296; Q5MGS7 21-118) (assay: SPR Biacore, biotin-FcRn on SA chip, pH 6; pH 6).
T1 construct: treated here as one molecule
Description: (§1) Feline FcRn was isolated, prepared and mutant Fc IgGs were assayed against feline FcRn according to Strietzel et. al., discussed above. Standard PCR was used to amplify feline FcRn-α subunit and β-microglobulin. FcRn-α subunit and β-microglobulin were co-transfected into HEK 293 cells and the FcRn complex was purified by IMAC affinity purification via the c-terminal His tag. FcRn complex was biotin labeled through BirA enzymatic biotinylatoin reaction. KD's were measured by Biacore T200 (GE Healthcare, Pittsburgh, PA, USA) or Biacore 8K (Cytiva, Marlborough, MA, USA) using a SA sensor chip.
(§2) FcRn was captured on the surface of the sensor using a modified SA capture method. 10 mM MES; 150 mM NaCl; 0.005% Tween20; 0.5 mg/mL BSA; pH6 was used as capture, method running buffer and titrations. 1×HBS-P, 0.5 mg/mL BSA; pH7.4 was also used for method running buffer and titrations. Fc mutant IgGs were flowed over receptor surfaces and affinity was determined using T200 evaluation software or Biacore Insight Evaluation software. Blank runs containing buffer only were subtracted out from all runs. Flow cells were regenerated using 50 mM Tris pH8 or pH9. Runs were performed at 15° C.

Kd	Binder
32 nM	B5
15.5 nM	B6
4.88 nM	B7

What follows are binders tested against T1, Feline FcRn (complex of FcRn-α subunit …) (assay: SPR Biacore, FcRn amine-coupled on CM5, pH 7.2).
Description: (§3) Feline FcRn was isolated, prepared and mutant Fc IgGs were assayed against feline FcRn according to Strietzelg et. al. Standard RACE PCR was used to amplify feline FcRn-α subunit and β-microglobulin. FcRn-α subunit and β-microglobulin were co-transfected into HEK 293 cells and the FcRn complex was purified by IMAC affinity purification via the c-terminal His tag. KD's were measured by Biacore 3000 or Biacore T200 (GE Healthcare, Pittsburgh, PA, USA) using a CM5 sensor chip.
(§4) FcRn was immobilized on the surface of the sensor using the standard amine immobilization method to reach the desired surface density. HBS-EP was used as the immobilization running buffer and 10 mM MES; 150 mM NaCl; 0.005% Tween20; 0.5 mg/mL BSA; pH6 and pH7.2 and PBS; 0.005% Tween20; 0.5 mg/mL BSA; pH7.4 were used for method running buffers and titrations. Fc mutant IgGs were flowed over receptor surfaces and affinity was determined using Scrubber2 software analysis (BioLogic Software Pty, Ltd., Campbell, Australia) or T200 evaluation software (Table 2). Blank runs containing buffer only were subtracted out from all runs. Flow cells were regenerated using 50 mM Tris pH8. Runs were performed at 15° C.

Kd	Binder
18.1 nM	B8
1.92 nM	B9
0.00847 nM	B10
5.06 nM	B11
0.0801 nM	B12
0.0157 nM	B13
6.57 nM	B14

The binders below were run against NGF (target of felinized anti-NGF antibodies mAb2 and mAb3) (assay: cell-based or functional assay).

IC50 (cell based potency assay)	Binder
0.69 nM	B1
0.58 nM	B4

What follows are binders tested against T1, Feline FcRn (complex of FcRn-α subunit …) (assay: SPR Biacore, biotin-FcRn on SA chip, pH 6).
Description: as §1, §2

Kd	Binder
6.83 nM	B15
4.29 nM	B16
7.8 nM	B17

These binders were tested against T1, Feline FcRn (complex of FcRn-α subunit …) (assay: SPR Biacore, FcRn amine-coupled on CM5, pH 6).
Description: as §3, §4

Kd	Binder
14.4 nM	B8
2.8 nM	B9
6.94 nM	B10
6.76 nM	B11
4.8 nM	B12
5.64 nM	B13
8.67 nM	B14

What follows are binders tested against Feline FcRn (complex of FcRn-α subunit and β-microglobulin, C-terminal His tag) (feline) (assay: SPR Biacore, FcRn amine-coupled on CM5, pH 7.2).

Kd	Binder
380 nM	B1
180 nM	B2
60 nM	B4

These binders were tested against IL31 (target of felinized anti-IL31 antibody mAb1) (assay: SPR Biacore T200, target amine-coupled, 15 C).

Kd	Binder
0.0228 nM	B2
0.0223 nM	B3

These binders were tested against NGF (target of felinized anti-NGF antibodies mAb2 and mAb3) (assay: SPR Biacore T200, target amine-coupled, 15 C).

Kd	Binder
0.023 nM	B1
0.008 nM	B4

Each binder was assayed against T1, Feline FcRn (complex of FcRn-α subunit …) (assay: SPR Biacore, biotin-FcRn on SA chip, pH 7.4).
Description: as §1, §2

Kd	binding result	Binder
5010 nM		B15
	no binding	B18
	no binding	B19
	no binding	B20
	no binding	B21
	no binding	B22
4010 nM		B16
431 nM		B17
